This is an account of results in paper doi:10.1101/2022.09.08.507146, “Cytomotive actins and tubulins share a polymerisation switch mechanism conferring robust dynamics” (bioRxiv, 2022).

This data set concerns the molecule itself. Put plainly: cryo-EM structure; BtubA*B single protofilaments, 0.21 mg/mL in HMK100 pH 7.7 with 0.5 mM GMPCPP, 45 s at 20 °C.

B1: Prosthecobacter dejongeii BtubA*B heterodimer (BtubA* R284G, R286D, F287G with BtubB) (complex)
chain 1: MKVNNTIVVSIGQAGNQIAASFWKTVCLEHGIDPLTGQTAPGVAPRGNWSSFFSKLGESSSGSYVPRAIMVDLEPSVIDNVKATSGSLFNPANLISRTEGAGGNFAVGYLGAGREVLPEVMSRLDYEIDKCDNVGGIIVLHAIGGGTGSGFGALLIESLKEKYGEIPVLSCAVLPSPQVSSVVTEPYNTVFALNTLRRSADACLIFDNEALFDLAHRKWNIESPTVDDLNLLITEALAGITASMRFSGFLTVEISLRELLTNLVPQPSLHFLMCAFAPLTPPDGSDGEELGIEEMIKSLFDNGSVFAACSPMEGRFLSTAVLYRGIMEDKPLADAALAAMREKLPLTYWIPTAFKIGYVEQPGISHRKSMVLLANNTEIARVLDRICHNFDKLWQRKAFANWYLNEGMSEEQINVLRASAQELVQSYQVAEESGAKAKVQDSAGDTGMRAAAAGVSDDARGSMSLRDLVDRRR
chain 2: MREILSIHVGQCGNQIADSFWRLALREHGLTEAGTLKEGSNAAANSNMEVFFHKVRDGKYVPRAVLVDLEPGVIARIEGGDMSQLFDESSIVRKIPGAANNWARGYNVEGEKVIDQIMNVIDSAVEKTKGLQGFLMTHSIGGGSGSGLGSLILERLRQAYPKKRIFTFSVVPSPLISDSAVEPYNAILTLQRILDNADGAVLLDNEALFRIAKAKLNRSPNYMDLNNIIALIVSSVTASLRFPGKLNTDLSEFVTNLVPFPGNHFLTASFAPMRGAGQEGQVRTNFPDLARETFAQDNFTAAIDWQQGVYLAASALFRGDVKAKDVDENMATIRKSLNYASYMPASGGLKLGYAETAPEGFASSGLALVNHTGIAAVFERLIAQFDIMFDNHAYTHWYENAGVSRDMMAKARNQIATLAQSYRDAS
notes: BtubA*, as m5; BtubB, as m6; The heterodimer as the unit that polymerises into single protofilaments; also called BtubA*B M-loop mutant; mutant BtubAB; source: E. coli C41(DE3), co-expressed and co-purified (HiTrap Q XL, Sephacryl S300, Mono Q)
Take B1: the binding result is “binds”.
